{
  "source": "paper PMC12221289",
  "assay_in_all_cases": "DRaCALA",
  "key": {"[1]": {"test_system": "Rcu mt-EF-Tu1 (Romanomermis culicivorax)", "details": "3'-aminoacylated with Phe (flexizyme); DRaCALA of EF-Tu:GTP:Phe-tRNA ternary complexes, 2 ul spotted on nitrocellulose, n>=3; binding buffer, pH and temperature not in the material"}, "[2]": {"molecular_target": "Bta mt-EF-Tu D384A D384A (Bos taurus) (UniProt P49410)", "details": "3'-aminoacylated with Phe (flexizyme); DRaCALA of EF-Tu:GTP:Phe-tRNA ternary complexes, 2 ul spotted on nitrocellulose, n>=3; binding buffer, pH and temperature not in the material"}, "[3]": {"molecular_target": "Bta mt-EF-Tu D384K D384K (Bos taurus) (UniProt P49410)", "details": "3'-aminoacylated with Phe (flexizyme); DRaCALA of EF-Tu:GTP:Phe-tRNA ternary complexes, 2 ul spotted on nitrocellulose, n>=3; binding buffer, pH and temperature not in the material"}, "[4]": {"test_system": "Cel mt-EF-Tu1 (Caenorhabditis elegans)", "details": "3'-aminoacylated with Phe (flexizyme); DRaCALA of EF-Tu:GTP:Phe-tRNA ternary complexes, 2 ul spotted on nitrocellulose, n>=3; binding buffer, pH and temperature not in the material"}, "[5]": {"test_system": "Cel mt-EF-Tu1 K386D (Caenorhabditis elegans)", "details": "3'-aminoacylated with Phe (flexizyme); DRaCALA of EF-Tu:GTP:Phe-tRNA ternary complexes, 2 ul spotted on nitrocellulose, n>=3; binding buffer, pH and temperature not in the material"}, "[6]": {"test_system": "Rcu mt-EF-Tu1 K380A (Romanomermis culicivorax)", "details": "3'-aminoacylated with Phe (flexizyme); DRaCALA of EF-Tu:GTP:Phe-tRNA ternary complexes, 2 ul spotted on nitrocellulose, n>=3; binding buffer, pH and temperature not in the material"}, "[7]": {"test_system": "Rcu mt-EF-Tu1 K380D (Romanomermis culicivorax)", "details": "3'-aminoacylated with Phe (flexizyme); DRaCALA of EF-Tu:GTP:Phe-tRNA ternary complexes, 2 ul spotted on nitrocellulose, n>=3; binding buffer, pH and temperature not in the material"}, "[8]": {"test_system": "Rcu mt-EF-Tu1 K380D/ΔC50 (Romanomermis culicivorax)", "details": "GTP; apparent Kd; 3'-aminoacylated with Phe (flexizyme); DRaCALA of EF-Tu:GTP:Phe-tRNA ternary complexes, 2 ul spotted on nitrocellulose, n>=3; binding buffer, pH and temperature not in the material"}, "[9]": {"test_system": "Rcu mt-EF-Tu1 K380E (Romanomermis culicivorax)", "details": "3'-aminoacylated with Phe (flexizyme); DRaCALA of EF-Tu:GTP:Phe-tRNA ternary complexes, 2 ul spotted on nitrocellulose, n>=3; binding buffer, pH and temperature not in the material"}, "[10]": {"test_system": "Rcu mt-EF-Tu1 K380R (Romanomermis culicivorax)", "details": "3'-aminoacylated with Phe (flexizyme); DRaCALA of EF-Tu:GTP:Phe-tRNA ternary complexes, 2 ul spotted on nitrocellulose, n>=3; binding buffer, pH and temperature not in the material"}, "[11]": {"test_system": "Rcu mt-EF-Tu1 region F chimera (Romanomermis culicivorax)", "details": "3'-aminoacylated with Phe (flexizyme); DRaCALA of EF-Tu:GTP:Phe-tRNA ternary complexes, 2 ul spotted on nitrocellulose, n>=3; binding buffer, pH and temperature not in the material"}, "[12]": {"test_system": "Rcu mt-EF-Tu1 ΔC15 (Romanomermis culicivorax)", "details": "GTP; apparent Kd; 3'-aminoacylated with Phe (flexizyme); DRaCALA of EF-Tu:GTP:Phe-tRNA ternary complexes, 2 ul spotted on nitrocellulose, n>=3; binding buffer, pH and temperature not in the material"}, "[13]": {"test_system": "Rcu mt-EF-Tu1 ΔC18 (Romanomermis culicivorax)", "details": "3'-aminoacylated with Phe (flexizyme); DRaCALA of EF-Tu:GTP:Phe-tRNA ternary complexes, 2 ul spotted on nitrocellulose, n>=3; binding buffer, pH and temperature not in the material"}, "[14]": {"test_system": "Rcu mt-EF-Tu1 ΔC3 (Romanomermis culicivorax)", "details": "3'-aminoacylated with Phe (flexizyme); DRaCALA of EF-Tu:GTP:Phe-tRNA ternary complexes, 2 ul spotted on nitrocellulose, n>=3; binding buffer, pH and temperature not in the material"}, "[15]": {"test_system": "Rcu mt-EF-Tu1 ΔC50 (Romanomermis culicivorax)", "details": "3'-aminoacylated with Phe (flexizyme); DRaCALA of EF-Tu:GTP:Phe-tRNA ternary complexes, 2 ul spotted on nitrocellulose, n>=3; binding buffer, pH and temperature not in the material"}, "[16]": {"test_system": "Tbr mt-EF-Tu1 (Trichinella britovi)", "details": "3'-aminoacylated with Phe (flexizyme); DRaCALA of EF-Tu:GTP:Phe-tRNA ternary complexes, 2 ul spotted on nitrocellulose, n>=3; binding buffer, pH and temperature not in the material"}, "[17]": {"test_system": "Tbr mt-EF-Tu1 S381D (Trichinella britovi)", "details": "3'-aminoacylated with Phe (flexizyme); DRaCALA of EF-Tu:GTP:Phe-tRNA ternary complexes, 2 ul spotted on nitrocellulose, n>=3; binding buffer, pH and temperature not in the material"}, "[18]": {"test_system": "Tbr mt-EF-Tu1 S381K (Trichinella britovi)", "details": "3'-aminoacylated with Phe (flexizyme); DRaCALA of EF-Tu:GTP:Phe-tRNA ternary complexes, 2 ul spotted on nitrocellulose, n>=3; binding buffer, pH and temperature not in the material"}},
  "data": [
    {"substance": "AGUCAAAUAGCUUAACCUUAAAGCACAAAUCUUUUAAAUUUGAAGAUGUAUCCACUUUGACUACCA [Phe-mt-tRNALys (T-armless)]", "values": [
      {"measurement": "Kd", "setting": "[1]", "value": 5.2, "unit": "nM"}
    ]},
    {"substance": "Phe-mt-tRNASer(UCU) (D-armless)", "values": [
      {"measurement": "Kd", "setting": "[1]", "value": 66.4, "unit": "nM"}
    ]},
    {"substance": "GCGGAUUUAGCUCAGUUGGGAGAGCGCCAGACUGAAGAUCUGGAGGUCCUGUGUUCGAUCCACAGAAUUCGCACCA [Phe-tRNAPhe (canonical)]", "values": [
      {"measurement": "Kd", "setting": "[1]", "value": 22.6, "unit": "nM"}
    ]},
    {"substance": "Phe-mt-tRNAIle (armless)", "values": [
      {"measurement": "Kd", "setting": "[2]", "value": 60.1, "unit": "nM"},
      {"measurement": "Kd", "setting": "[3]", "value": 96.8, "unit": "nM"},
      {"measurement": "Kd", "setting": "[4]", "value": 17.1, "unit": "nM"},
      {"measurement": "Kd", "setting": "[5]", "value": 62.6, "unit": "nM"},
      {"measurement": "Kd", "setting": "[1]", "value": 5.8, "unit": "nM"},
      {"measurement": "Kd", "setting": "[6]", "value": 33.4, "unit": "nM"},
      {"measurement": "Kd", "setting": "[7]", "value": 70.4, "unit": "nM"},
      {"measurement": "Kd", "setting": "[8]", "value": 350, "unit": "nM"},
      {"measurement": "Kd", "setting": "[9]", "value": 150, "unit": "nM"},
      {"measurement": "Kd", "setting": "[10]", "value": 16.5, "unit": "nM"},
      {"measurement": "Kd", "setting": "[11]", "value": 222, "unit": "nM"},
      {"measurement": "Kd", "setting": "[12]", "value": 40.7, "unit": "nM"},
      {"measurement": "fold Kd increase vs wild type (fold Kd increase vs wt)", "setting": "[13]", "value": 8.7},
      {"measurement": "fold Kd increase vs wild type (fold Kd increase vs wt)", "setting": "[14]", "value": 1.5},
      {"measurement": "fold Kd increase vs wild type (fold Kd increase vs wt)", "setting": "[15]", "value": 14},
      {"measurement": "Kd", "setting": "[16]", "value": 4.4, "unit": "nM"},
      {"measurement": "Kd", "setting": "[17]", "value": 7.1, "unit": "nM"},
      {"measurement": "Kd", "setting": "[18]", "value": 3, "unit": "nM"}
    ]}
  ]
}
